The results in this text go back to the nanobody polyreactivity screen of Harvey et al. (2022).

The nature of this data set: yeast display, Sf9 membrane polyspecificity reagent, FACS + sequencing; frameworks hold sequencing errors. The procedure, abridged: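 Genes from sorted yeast were amplified by colony PCR, read by MiSeq 2 × 250 sequencing and filtered on CDR length. These cells carried a synthetic nanobody library in Saccharomyces cerevisiae BJ5465 and were sorted by FACS into low and high (top ~1%) gates on anti-HA and streptavidin fluorescence. Polyreactivity is labelled according to the gate of origin.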
In the case of “QVQLVESGGGIVQAGGSLRLTCAASGRIFAWYAMGWYRQAPWKERELVASITWGGGRTYYADSVKGRFTISRDNAKNTVYLQMNCLKPEVTAVYYCAAYRYKEEAYLGVAQERDYWGQGTLVTVSS”, the “polyreactivity (PSR sort gate)” value was “low polyreactivity”.
As to “QVQLVESGGGIVQARGSLRLSCAASGRIFAPYAMGWYRQAPGKERELVAAIRISGDSTYYADSVKGRFTISRDNAKNTVYLQMNSLKPHDTAVYYCAAEYYILHWFGYAGYPAYNYWGQGTQVTVSS”, the “polyreactivity (PSR sort gate)” value is reported as “high polyreactivity”.
Under “QVQLVESGGGIVQEGGSLRLSCAASGRTFNRYAMGWYRQAPGKERELVAAISWSGGRTYYADSVKGRFTISRDNAKNTVYLQMNSLIPEGTAVYYCAKEAYIRYDYWGQGTQVTVSS” stands “low polyreactivity”.
The entry for “QVQLVESGGGIVQSGGSLRLSCAASGSIFQPYAMGWYRQAPGQEREFVAAISRSGGITYYADSVKGRFTISRDNAKNTVYLQMYSLKPEDTAVYYCATGRQVVRSYSEGDYWGQGTQVTLSS” is “low polyreactivity”.
The entry for “QVQLVESGGGKVQAGGSLRLICAASGSTFSSYAMGWYRQAPGKERELVAGISRGGSSTDYADSVKGRFTISRDNAKNTVYLQMNSLKPEDPAVYYCNAKVWWSFNGLEYDYWGQGTQVTVSS” is “low polyreactivity”; for “QVQLVESGGGKVQAGGSLRLSCAASGFIFRYYAMGWYRQAPGKERELGAAISKRGGSTYYADSVKGRFTISRDNAKNTVYLQMNSLKADDTAVYYCARGYPIDPSFDTYDYWGQGTQVTVSS” it is “high polyreactivity”.
For “QVQLVESGGGKVQAGGSLRLSCASSGFTYDSNAMGSYRQAPGKERELVAAISTGGSTYYADSVKGPFTISRDNANITVYLQMYSLKPEDTAVYYCARDPPYPDTWYGYWGQGTQVTVSS”, the “polyreactivity (PSR sort gate)” value is “low polyreactivity”.
For “QVQLVESGGGLAQAGCSLRLSCAASGRLFRGNAMGGYRQAPGKERELVARITGNDGDTYYADSVKGRFTISRDNAKNTVYLQMNSLKPEDTAVYYCATDTSSYRRRYYYWGQGTQVTVSS”, the “polyreactivity (PSR sort gate)” value is “low polyreactivity”.
With “QVQLVESGGGLAQAGGSLRLSCAASGRTFVTNAMGWYRQAPGKERELVAAISKSGGRTYYADSVKGRFTISRDNAKNTVYLQMNSLKPEDTAVYYCAADKRYLSYDYWGQGTQVTVSS”, the “polyreactivity (PSR sort gate)” value was “high polyreactivity”.
Under “QVQLVESGGGLAQAGGSLRLTCAASGSTFQIYAMGWYRPAPGKERELVAAITSSSSTNYADSVKGRFTISRDNAKNTVYLQMNRLKPEDTAVYYCAADVSWRSNWYDYWGLGTQVTVSS” stands “low polyreactivity”; under “QVQLVESGGGLDHAGGSLRLSCAASGFIFTPNAMGMYRQAPAKEREWVAAITSGGVTYYADSVKGRFTISRDNAKNTVYIQMNSLKPEGTAVYYCKKNHTGTVRDSIYGYWGQGNQVTVSS”, “high polyreactivity”.
As for “QVQLVESGGGLDHAGGSLRLSCAASGITFKRYAMGWYRQAPGKERELVAAISDIGGRTYYADSVKGRFTISRDNAKNTVYLQMNSLKPEDTAVYYCAADYYSPVDWYYYWGQGTQVTVSS”, the “polyreactivity (PSR sort gate)” value is given as “high polyreactivity”.
With “QVQLVESGGGLDQAGGRLPLTCAASGLIFYDNMGWYRHAPGKERELVAAISSSGGSTSYADSVKGRFTISRDNAKNTVFLQMICLKPEDTAVYYCAADSYPAYLGFVGFDYWGQGTIVTVSS”, the “polyreactivity (PSR sort gate)” value is reported as “low polyreactivity”.
In the case of “QVQLVESGGGLDQAGGRLRLSCAASGITVGYNDMGRYRQARGKERELVAAINRGASTNYADSVKGRFTISRDNAKNTVYFQMNCLKPEDTAVYYCNADHRDTFIWVGLPHMDYWGQGTQVTVSS”, the “polyreactivity (PSR sort gate)” value is “low polyreactivity”.
With “QVQLVESGGGLDQAGGSHRLSCAASGFTFYPNAMGWYRQAPGKERELVASINSDGSTNYADSVKGRFTISRDNAKNTVYLPMNSLIPEDTAVYYCAAGYFWGRIKYYYWVQGTQVTVSS”, the “polyreactivity (PSR sort gate)” value is on record as “high polyreactivity”.
“QVQLVESGGGLDQAGGSLGLSCAASGFTFTGYTMGWYRQAPGKERELVATISGSGGNTYYADSVKGRFTISRDNAKNTVYLQMNSLKPEETAVYYCARRRSGPRVLYYYWGQGTQVTVSS”: the “polyreactivity (PSR sort gate)” value was “low polyreactivity”.
As for “QVQLVESGGGLDQAGGSLPLSCAASGITSYVYAMRWYRQAPGKERELVASISWTGGNTYADSVKGRFTISRDNAKNTVYLPMNSLKPEDTAVYYCNAGRSWDYWYGYDYWGQGTQVTVSS”, the “polyreactivity (PSR sort gate)” value is given as “low polyreactivity”.
For “QVQLVESGGGLDQAGGSLRLICAASGSIFNGNAMGWYRQAPGKQRDLVAAITRRGGSTYYADSVKVRFTISRDNAKNTVYLQMNSLKPEDTAVYYCAAEDWLYKRPYKERIVQFYYWGQGTQVTVSS”, the “polyreactivity (PSR sort gate)” value is listed as “low polyreactivity”.
“QVQLVESGGGLDQAGGSLRLSCAASALIFSSYAMGWYRQAPGKERELVAAITGSGGRTYYADSVKGRFTISRDNAKNTVYLQMNSLKPEDTAVYYCAAKYPAPRYYTGYDYWGQGTQVTVSS”: the “polyreactivity (PSR sort gate)” value is reported as “high polyreactivity”.
Turning to “QVQLVESGGGLDQAGGSLRLSCAASGFIFFRYAMGWYRQAPRKEREMVAAISSSGGSTYYADSVKGRFTISRDNAKNTVYLQMNSLKPEDTAVYFCAAPRYPIFVGLGKDYWGQGTQVTVSS”, the “polyreactivity (PSR sort gate)” value is “high polyreactivity”.
For “QVQLVESGGGLDQAGGSLRLSCAASGFIFRYYTMGWYRQAPGKERELFATITSGGSTYYADSVKGRFTISRDNAKNTVYLQMNSLKPEDTAVYYCAKYHSLRRQYSKFRPTFDYWGQGTQVTVSS”, the “polyreactivity (PSR sort gate)” value was “high polyreactivity”.
Regarding “QVQLVESGGGLDQAGGSLRLSCAASGFILGDYAMGWYRQAPGKERELVAAITSSGGSTYYADSVKGRFTISRDNAKNTVYFQMNSLKPEDTAVYYCNTVYVYGPEYDYWGQGTQVTVSS”, the “polyreactivity (PSR sort gate)” value was “high polyreactivity”.
As to “QVQLVESGGGLDQAGGSLRLSCAASGFIYSWYAMGWYRQAPGKERELVAAISSSGVSTYYADSVKGRFTISRDNAKNTVYLQMNSLKPEDTAVYYCNAYGSVWDRGEYDYEYWGQGTQVTVSS”, the “polyreactivity (PSR sort gate)” value is recorded as “low polyreactivity”.
In the case of “QVQLVESGGGLDQAGGSLRLSCAASGFTFDENAMGSYRQAPGINYSGASTYYADSVKGRFTISRDNAKNTVYLQMNSLKPEDTAVYYCAAEVVAQMNYWGQGTQVTVSW”, the “polyreactivity (PSR sort gate)” value was “low polyreactivity”.
For “QVQLVESGGGLDQAGGSLRLSCAASGFTFGYYAMGWYRQAPGKERELVATIDRGGGTSYADSVKGRFTISRDNAKNTVYLQMNSLKPEDTAVYYCNRAGYGAKARRYRSYWGQGTQVTVSS”, the “polyreactivity (PSR sort gate)” value was “high polyreactivity”.
As for “QVQLVESGGGLDQAGGSLRLSCAASGFTFPLYAMGWYRQAPGKERELVAVISRSGGSTYYADSVKGRFTISRDNAKNTVYLQMNSLTPEDTAVYYCAARLVPRSPERGNYDYWGQGTQVTVSS”, the “polyreactivity (PSR sort gate)” value is reported as “high polyreactivity”.
“QVQLVESGGGLDQAGGSLRLSCAASGFTFPRYAMGWYRQAPGKERELVAAITLIGGSTYYADSVKGRFTISRDNAKNTVYLQMNSLKPEDTAVYYCAATDRKVGVYHSYYYWGQGTQVTVSS”: the “polyreactivity (PSR sort gate)” value is reported as “low polyreactivity”.
As to “QVQLVESGGGLDQAGGSLRLSCAASGFTFRRYAMGWYSQAPGKEREFVAAITTRGSNTYYADSVKGRFTISRDNAKNTVYLQMNSLKPEDTAVYYCAASYYPPGHYDYWGQGTQVTVSS”, the “polyreactivity (PSR sort gate)” value is given as “high polyreactivity”.
Under “QVQLVESGGGLDQAGGSLRLSCAASGFTFTAYDMGWYRQAPGKVRELVAAINWSGSRTYYADSVKGRFTISRDNAKNTVYLQMNSLKPEDTAVYYCNTATSKSSYLHYDYWGQGTQVTVSS” stands “high polyreactivity”.
Regarding “QVQLVESGGGLDQAGGSLRLSCAASGFTFYSYVMGWYRQAPGKERELVAAITRGGSTYYADSVKGRFTISRDNAKNTVYLQMNSMKPDDTAVYYCAKRPSYGFNYWGQGTQVTVSS”, the “polyreactivity (PSR sort gate)” value is “low polyreactivity”.
Turning to “QVQLVESGGGLDQAGGSLRLSCAASGFTFYVYTMGWYRQAPGKERELVARITSRAGRTYYADSVKGRFTISRDNAKNTVYLQMNSLKPEDTAVYYCNTRDFSGYVHALSLYDYWGQGTQVTVSS”, the “polyreactivity (PSR sort gate)” value is on record as “high polyreactivity”.
Turning to “QVQLVESGGGLDQAGGSLRLSCAASGGIFVGYAMGWYRQSPGKERELVASISSGGSTKYADSVKGRFTISRDNAKNTVYLQMNSLKPEDTAVYYCAATDTEGIDARYASVPTSYDYWGQGTQVTVSS”, the “polyreactivity (PSR sort gate)” value was “low polyreactivity”.
On to “QVQLVESGGGLDQAGGSLRLSCAASGIIFVKYTMGWYIQAPGKERELDAAISRSGGSTYYADSVKGRFTISRDNAKYTVYLQMNSLKPEDTAVYYCNAGARKVYPGPMDYWGQGTQVTVSS”, for which the “polyreactivity (PSR sort gate)” value is recorded as “high polyreactivity”.
For the sequence “QVQLVESGGGLDQAGGSLRLSCAASGITFRWYAMGWYRQAPGKERELVAAISSGGSTRYADSVKGRFTISRDNAKNTVYLQMNSLKPEDTAVYYCAKRYYGRGYYYWGQGTQVTVSS”, the “polyreactivity (PSR sort gate)” value is “high polyreactivity”.
On to “QVQLVESGGGLDQAGGSLRLSCAASGLIFYDKMGWYRQAPRKERELVAAISSSCGSTSYADSVKGRFTISRDNAKHTVYLQMNSLKPEDTAVYYCAADSYPAYLGFVGFDYWGQGTQVTVSS”, for which the “polyreactivity (PSR sort gate)” value is given as “low polyreactivity”.
Turning to “QVQLVESGGGLDQAGGSLRLSCAASGLTFRPYAMGGYRQAPWKERELDAGISGGGGRTYYADSVKGRFTISRDNAKNTVYFQMNSLKPEDTAVYYCATPSAYRYPYYYDYEYWGQGTQVTVSS”, the “polyreactivity (PSR sort gate)” value is recorded as “low polyreactivity”.
Regarding “QVQLVESGGGLDQAGGSLRLSCAASGNIFYGNAMGWSRQAPGKERELVAGITSGGSTNYADSVKGRFTISRDTAKNTVYLQMTSLKPEDTAVYYCNATSSGSIFGYEYWGQGTQVTVSS”, the “polyreactivity (PSR sort gate)” value was “low polyreactivity”.
With “QVQLVESGGGLDQAGGSLRLSCAASGRIFFGNVMGWYRQATGKDSELVAAITKRVGRTYYADSVKGRFTISRDNAKNTVYLQMNSLKPEDTAVYYCNAVTPLSYCRAAPLEMDYWGQGTQVTVSS”, the “polyreactivity (PSR sort gate)” value is given as “high polyreactivity”.
Consider “QVQLVESGGGLDQAGGSLRLSCAASGRIFGYYAMGWYRLAPGKERELVAGIRSVGSTNYADSVKGRFTISRDNAKNTVYLQMNSLKPEDTAVNYCASRLWHLSYAGQGGDYWGQGTQVTVSS”, for which the “polyreactivity (PSR sort gate)” value is given as “low polyreactivity”.
The entry for “QVQLVESGGGLDQAGGSLRLSCAASGRIFHVNVMGGYRQAPGKERELVAAISKSGGSTYYADSVKGRFTISRDNAKNTVYLQMNSLKPEDTAVYYCAAVRDSARYYYWGQGTHVTVSS” is “high polyreactivity”.
